# Assays:
# [1] = system: rat model of pulmonary arterial hypertension (PAH), monocrotaline (MCT) induced; assay: monocrotaline rat model of pulmonary arterial hypertension; format: in vivo, Sprague Dawley rats
# Procedure: The effects of an ActRIIA-mFc fusion protein (ActRIIA-mFc homodimer as described in Example 1), an ALK4-Fc-ActRIIB-Fc heterodimer (as described in Examples 12 and 13), and sildenafil (a phosphodiesterase-5 inhibitor approved for the treatment of PAH) were examined in a rat model of pulmonary arterial hypertension (PAH). In this model, Sprague Dawley rats received a […] injection of monocrotaline (MCT) to induce PAH 24 hours prior to start of therapy.
# Rats were separated into different treatment groups (10 mice per group): 1) treatment with MCT (60 mg/kg administered i.p. as a single dose at day 1 of study) and Tris buffered saline (i.p. as 1 ml/kg, every three days) (vehicle treatment group), 2) treatment with an ActRIIA-mFc polypeptide (10 mg/kg administered i.p. every three days) and MCT (60 mg/kg administered i.p. as a single dose at day 1 of study), 3) treatment with an ALK4-Fc:ActRIIB-Fc heterodimer (10 mg/kg administered i.p. every three days) and MCT (60 mg/kg administered i.p. as a single dose at day 1 of study), 4) treatment with sildenafil (30 mg/kg administered orally twice daily) and MCT (60 mg/kg administered i.p. as a single dose at day 1 of study), and 5) control rats (Tris buffered saline administered i.p. as 1 ml/kg, every three days). Rats were treated for 28 days. Body weights were recorded prior to first dose on Day 1 and then weekly throughout the study.
# On day 28, rats were anesthetized by an intraperitoneal injection of ketamine/xylazine (80/10 mg/kg). An incision was made in the neck, and a jugular vein was isolated and ligated anteriorly. A fluid-filled pressure catheter was introduced into the right jugular vein to measure pulmonary artery pressure (PAP). Another incision was made in the inguinal region, and femoral artery was isolated and ligated anteriorly. A Millar pressure catheter was introduced into a femoral artery to measure systolic arterial pressure, diastolic pressure, and heart rate. Mean arterial pressure and right PAP were monitored using the Notocord HEM (Croissy sur Seine, Frnace) v3.5 data capture system for approximately 5-10 minutes until stable measurements were obtained. During the measurements, rats were maintained at approximately 37° C. on a heating pad and body temperature was monitored throughout the procedure with a rectal temperature probe. At the conclusion of the procedure, rats were euthanized, and the hearts and lungs were removed. The entire heart was weighed. Next, the atria were removed and the left ventricle with septum (LV+S) was separated from the right ventricle (RV). The ventricles were weighed separately. Hypertrophy was assessed, in part, by calculating RV/LV+S. The lungs were also weighed.
# Similar trends were observed on vessel muscularity based on histopathologic scoring. After staining tissue samples to detect αSMA/elastin, 100 pulmonary arterioles, between 10 μm and 50 μm in size, per animal were categorized as non-muscularized, partially muscularized, or completely muscularized. Pulmonary arterioles from vehicle treated rats were determined to be 62.3% completely muscularized, 36.4% partially muscularized, and 1.4% non-muscularized. […] Histopathological scoring of smooth muscle hypertrophy of pulmonary arterioles were also recorded as follows: 0 (normal), 1 (minimal), 2 (mild), 3 (moderate), or 4 (marked).
# activin A (ActA) = target: T1, activin A (ActA) (Homo sapiens, UniProt P08476); conditions: reproduced from WO2006/012627; cited from earlier work
# T1 sequence (P08476 311-426): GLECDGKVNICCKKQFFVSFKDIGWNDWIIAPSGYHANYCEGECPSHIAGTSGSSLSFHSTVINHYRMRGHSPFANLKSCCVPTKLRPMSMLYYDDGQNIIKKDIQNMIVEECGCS
# GDF11 = target: T2, GDF11 (Homo sapiens, UniProt O95390); conditions: reproduced from WO2006/012627; cited from earlier work
# T2 sequence (O95390 299-407): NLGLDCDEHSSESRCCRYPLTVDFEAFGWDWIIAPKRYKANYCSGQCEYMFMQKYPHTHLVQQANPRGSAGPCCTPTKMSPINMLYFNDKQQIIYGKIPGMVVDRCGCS
# GDF8 = target: T3, GDF8 (Homo sapiens, UniProt O14793); assay: Biacore assay, receptor captured with anti-hFc antibody; format: binding
# T3 sequence (O14793 267-375): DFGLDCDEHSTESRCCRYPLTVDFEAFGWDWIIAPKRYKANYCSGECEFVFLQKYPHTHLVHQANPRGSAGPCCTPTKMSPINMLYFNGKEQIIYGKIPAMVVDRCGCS
# Procedure: Binding of certain ActRIIB-Fc proteins and GDF traps to ligands was tested in a Biacore assay.
# The ActRIIB-Fc variants or wild-type protein were captured onto the system using an anti-hFc antibody. Ligands were injected and flowed over the captured receptor proteins.
Molecule,ActA binding relative to WT (activin A (ActA)),GDF11 binding relative to WT (GDF11),further results
"CCCc1nn(C)c2c(=O)[nH]c(-c3cc(S(=O)(=O)N4CCN(C)CC4)ccc3OCC)nc12 [sildenafil, reference compound]",,,"smooth muscle hypertrophy of pulmonary arterioles, average histopathological score ([1]; 0 normal, 1 minimal, 2 mild, 3 moderate, 4 marked): 3 score; improvement in body weight ([1]; 28 days, compared to monocrotaline treated rats, proteins 10 mg/kg i.p. every three days, sildenafil 30 mg/kg orally twice daily): did not have any improvement"
"D54A: soluble ActRIIB-Fc variant D54A (protein, left off: a dimerising Fc or GST) SGRGEAETRECIYYNANWELERTNQSGLERCEGEQAKRLHCYASWANSSGTIELVKKGCWLDDFNCYDRQECVATEENPQVYFCCCEGNFCNERFTHLPEA",− (~1/2 WT binding),,
"L79A: soluble ActRIIB-Fc variant L79A (protein, left off: a dimerising Fc or GST) SGRGEAETRECIYYNANWELERTNQSGLERCEGEQDKRLHCYASWANSSGTIELVKKGCWADDFNCYDRQECVATEENPQVYFCCCEGNFCNERFTHLPEA",+ (WT),,
"K74Y: soluble ActRIIB-Fc variant K74Y (protein, left off: a dimerising Fc or GST) SGRGEAETRECIYYNANWELERTNQSGLERCEGEQDKRLHCYASWANSSGTIELVYKGCWLDDFNCYDRQECVATEENPQVYFCCCEGNFCNERFTHLPEA",,−− (<1/5 WT binding),
"K74F: soluble ActRIIB-Fc variant K74F (protein, left off: a dimerising Fc or GST) SGRGEAETRECIYYNANWELERTNQSGLERCEGEQDKRLHCYASWANSSGTIELVFKGCWLDDFNCYDRQECVATEENPQVYFCCCEGNFCNERFTHLPEA",,−− (<1/5 WT binding),
"K55A: soluble ActRIIB-Fc variant K55A (protein, left off: a dimerising Fc or GST) SGRGEAETRECIYYNANWELERTNQSGLERCEGEQDARLHCYASWANSSGTIELVKKGCWLDDFNCYDRQECVATEENPQVYFCCCEGNFCNERFTHLPEA",++ (<2× increased binding),,
"K74I: soluble ActRIIB-Fc variant K74I (protein, left off: a dimerising Fc or GST) SGRGEAETRECIYYNANWELERTNQSGLERCEGEQDKRLHCYASWANSSGTIELVIKGCWLDDFNCYDRQECVATEENPQVYFCCCEGNFCNERFTHLPEA",,−− (<1/5 WT binding),
"D80I: soluble ActRIIB-Fc variant D80I (protein, left off: a dimerising Fc or GST) SGRGEAETRECIYYNANWELERTNQSGLERCEGEQDKRLHCYASWANSSGTIELVKKGCWLIDFNCYDRQECVATEENPQVYFCCCEGNFCNERFTHLPEA",,−− (<1/5 WT binding),
"WT (64A): soluble ActRIIB-Fc, wild type with alanine at position 64 (WO2006/012627) (protein, left off: a dimerising Fc or GST) SGRGEAETRECIYYNANWELERTNQSGLERCEGEQDKRLHCYASWANSSGTIELVKKGCWLDDFNCYDRQECVATEENPQVYFCCCEGNFCNERFTHLPEA",(+) (WT),(+) (WT),
"WT (64R): soluble ActRIIB-Fc, wild type with arginine at position 64 (WO2006/012627) (protein, left off: a dimerising Fc or GST) SGRGEAETRECIYYNANWELERTNQSGLERCEGEQDKRLHCYASWRNSSGTIELVKKGCWLDDFNCYDRQECVATEENPQVYFCCCEGNFCNERFTHLPEA",,(+++) (~5× increased binding),
"K74A: soluble ActRIIB-Fc variant K74A (WO2006/012627 table) (protein, left off: a dimerising Fc or GST) SGRGEAETRECIYYNANWELERTNQSGLERCEGEQDKRLHCYASWANSSGTIELVAKGCWLDDFNCYDRQECVATEENPQVYFCCCEGNFCNERFTHLPEA",+++++ (~40× increased binding),+++++ (~40× increased binding),
"F82A: soluble ActRIIB-Fc variant F82A (protein, left off: a dimerising Fc or GST) SGRGEAETRECIYYNANWELERTNQSGLERCEGEQDKRLHCYASWANSSGTIELVKKGCWLDDANCYDRQECVATEENPQVYFCCCEGNFCNERFTHLPEA",++ (<2× increased binding),− (~1/2 WT binding),
"R40A: soluble ActRIIB-Fc variant R40A (protein, left off: a dimerising Fc or GST) SGRGEAETRECIYYNANWELEATNQSGLERCEGEQDKRLHCYASWANSSGTIELVKKGCWLDDFNCYDRQECVATEENPQVYFCCCEGNFCNERFTHLPEA",− (~1/2 WT binding),− (~1/2 WT binding),
ActRIIB(K74A 20-134)-hFc: ActRIIB(20-134)-hFc variant with K74A mutation (protein) GRGEAETRECIYYNANWELERTNQSGLERCEGEQDKRLHCYASWRNSSGTIELVAKGCWLDDFNCYDRQECVATEENPQVYFCCCEGNFCNERFTHLPEAGGPEVTYEPPPTAPTGGGTHTCPPCPAPELLGGPSVFLFPPKPKDTLMISRTPEVTCVVVDVSHEDPEVKFNWYVDGVEVHNAKTKPREEQYNSTYRVVSVLTVLHQDWLNGKEYKCKVSNKALPVPIEKTISKAKGQPREPQVYTLPPSREEMTKNQVSLTCLVKGFYPSDIAVEWESNGQPENNYKTTPPVLDSDGSFFLYSKLTVDKSRWQQGNVFSCSVMHEALHNHYTQKSLSLSPGK,,,"Koff, GDF8 (GDF8): 2.03e-05 s⁻¹"
"+15tail: soluble ActRIIB-Fc variant labelled +15tail (WO2006/012627) (protein, left off: a dimerising Fc or GST) SGRGEAETRECIYYNANWELERTNQSGLERCEGEQDKRLHCYASWANSSGTIELVKKGCWLDDFNCYDRQECVATEENPQVYFCCCEGNFCNERFTHLPEAGGPEVTYEPPPTAPT",(+++) (~5× increased binding),(++++) (~10× increased binding),Kd (GDF11): 19 nM
